# Read-outs that look alike come from different tables or passages of the source.
# B1: nCaRE-B SIRT1-B mutated (biotinylated) (dsDNA)
# DNA 1: TTTTTGCTAAGGAGCGTCGCTCTTG
# DNA 2: CAAGAGCGACGCTCCTTAGCAAAAA
# B2: poly(dT) 24-mer (ssDNA)
# DNA: TTTTTTTTTTTTTTTTTTTTTTTT
# B3: nCaRE-B SIRT1-B (dsDNA)
# DNA 1: TTTTTGAGACGGAGTTTCGCTCTTG
# DNA 2: CAAGAGCGAAACTCCGTCTCAAAAA
# B4: nCaRE-B SIRT1-A (dsDNA)
# DNA 1: TTTTTGAGACAGAGTTTCACTCTTG
# DNA 2: CAAGAGTGAAACTCTGTCTCAAAAA
# B5: nCaRE-B SIRT1-B (biotinylated) (dsDNA)
# DNA 1: TTTTTGAGACGGAGTTTCGCTCTTG
# DNA 2: CAAGAGCGAAACTCCGTCTCAAAAA
# Assays:
# [1] = molecular target: T1, APE1 WT (Homo sapiens, UniProt P27695 1-318); assay: SPR
# [2] = molecular target: T1, APE1 WT; assay: SPR; remark: listed apart in the source
# [3] = molecular target: T2, APE1 NΔ33 (Homo sapiens, UniProt P27695 34-318, del1-33); assay: SPR
# [4] = molecular target: T2, APE1 NΔ33; assay: EMSA
# [5] = molecular target: T1, APE1 WT; assay: EMSA
# T1 sequence (P27695 whole entry): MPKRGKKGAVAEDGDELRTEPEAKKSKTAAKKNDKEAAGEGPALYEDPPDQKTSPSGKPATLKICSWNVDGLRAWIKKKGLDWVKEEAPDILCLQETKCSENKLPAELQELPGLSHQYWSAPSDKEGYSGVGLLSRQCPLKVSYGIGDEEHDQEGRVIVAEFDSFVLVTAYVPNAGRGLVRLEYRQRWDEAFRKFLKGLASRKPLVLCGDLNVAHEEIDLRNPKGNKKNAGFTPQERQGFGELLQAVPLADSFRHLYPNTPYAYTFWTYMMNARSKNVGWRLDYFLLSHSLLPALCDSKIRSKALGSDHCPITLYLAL
# T2 sequence (P27695 34-318, stated change not applied): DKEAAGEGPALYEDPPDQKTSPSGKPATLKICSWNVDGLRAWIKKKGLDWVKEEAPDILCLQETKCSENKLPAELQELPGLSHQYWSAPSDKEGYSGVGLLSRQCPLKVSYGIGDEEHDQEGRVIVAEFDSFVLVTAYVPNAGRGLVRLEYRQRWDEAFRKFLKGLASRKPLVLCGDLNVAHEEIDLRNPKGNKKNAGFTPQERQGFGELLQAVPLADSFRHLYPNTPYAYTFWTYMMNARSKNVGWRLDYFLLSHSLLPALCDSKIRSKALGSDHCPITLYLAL
Binder,Kd [2],binding result [3],binding result [4],other results
B1,–,–,–,Kd [1]: 119 ± 8 µM
B2,308 ± 3 µM,no binding,–,–
B3,–,–,no binding,–
B4,–,–,no binding,binding result [5]: binds
B5,3.9 ± 0.08 µM,no binding,–,–

# — paper PMC3923644
